Measured values reported in paper PMC12753876.

Experiments:
[1] = target: HsFA3 E188R in pGBKT7 (BD) (Arabidopsis thaliana) (UniProt Q8GYY1); test: two-hybrid; CRY1 as prey in pGADT7 (AD), HsF as bait in pGBKT7 (BD), co-transformed into yeast Y187; liquid beta-galactosidase assay with CPRG, Miller units; not detected (ND) if OD578 <0.01 after 3 h of color development
[2] = target: HsFA1e^R126E in pGBKT7 (BD) (Arabidopsis thaliana) (UniProt Q9SCW5); test: as above
[3] = target: HsFA3 E188R in pGBKT7 (BD) (UniProt Q8GYY1); test: yeast two-hybrid (beta-galactosidase, Miller units); details: n=3; parent: est. 270; read off a plot
HsFA3 E188R in pGBKT7 (BD), sequence (Q8GYY1 whole entry E188R): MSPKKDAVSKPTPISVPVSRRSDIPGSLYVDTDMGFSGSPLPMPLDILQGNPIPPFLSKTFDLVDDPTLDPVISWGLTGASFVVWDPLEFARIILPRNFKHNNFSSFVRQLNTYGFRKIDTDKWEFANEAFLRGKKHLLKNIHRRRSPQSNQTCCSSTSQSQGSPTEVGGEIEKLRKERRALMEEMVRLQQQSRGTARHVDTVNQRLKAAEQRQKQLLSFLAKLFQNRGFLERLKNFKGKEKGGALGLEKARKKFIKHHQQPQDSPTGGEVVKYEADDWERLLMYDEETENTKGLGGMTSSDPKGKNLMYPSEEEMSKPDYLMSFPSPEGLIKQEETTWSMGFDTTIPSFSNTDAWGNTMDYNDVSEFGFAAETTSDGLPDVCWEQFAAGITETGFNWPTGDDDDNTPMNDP

CRY1^(PHR WT) in pGADT7 (AD), sequence (Q43125 1-508): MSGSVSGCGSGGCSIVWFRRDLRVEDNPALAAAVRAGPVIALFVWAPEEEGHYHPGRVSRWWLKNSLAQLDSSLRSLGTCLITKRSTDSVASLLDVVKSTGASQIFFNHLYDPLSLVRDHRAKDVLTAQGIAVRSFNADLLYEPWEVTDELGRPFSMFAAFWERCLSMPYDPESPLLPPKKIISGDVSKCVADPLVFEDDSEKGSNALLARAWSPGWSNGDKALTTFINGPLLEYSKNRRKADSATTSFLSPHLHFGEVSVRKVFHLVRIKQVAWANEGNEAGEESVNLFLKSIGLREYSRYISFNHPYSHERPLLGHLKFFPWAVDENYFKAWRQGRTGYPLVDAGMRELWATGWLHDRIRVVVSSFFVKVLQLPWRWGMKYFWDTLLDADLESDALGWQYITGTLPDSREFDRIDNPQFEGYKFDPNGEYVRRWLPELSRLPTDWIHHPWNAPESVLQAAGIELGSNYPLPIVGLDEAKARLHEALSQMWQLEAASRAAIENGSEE
HsFA3 E188R in pGBKT7 (BD) (Arabidopsis thaliana), sequence (Q8GYY1 whole entry E188R): as the sequence (Q8GYY1 whole entry E188R) above
HsFA1e^R126E in pGBKT7 (BD) (Arabidopsis thaliana), sequence (Q9SCW5 whole entry, stated change not applied): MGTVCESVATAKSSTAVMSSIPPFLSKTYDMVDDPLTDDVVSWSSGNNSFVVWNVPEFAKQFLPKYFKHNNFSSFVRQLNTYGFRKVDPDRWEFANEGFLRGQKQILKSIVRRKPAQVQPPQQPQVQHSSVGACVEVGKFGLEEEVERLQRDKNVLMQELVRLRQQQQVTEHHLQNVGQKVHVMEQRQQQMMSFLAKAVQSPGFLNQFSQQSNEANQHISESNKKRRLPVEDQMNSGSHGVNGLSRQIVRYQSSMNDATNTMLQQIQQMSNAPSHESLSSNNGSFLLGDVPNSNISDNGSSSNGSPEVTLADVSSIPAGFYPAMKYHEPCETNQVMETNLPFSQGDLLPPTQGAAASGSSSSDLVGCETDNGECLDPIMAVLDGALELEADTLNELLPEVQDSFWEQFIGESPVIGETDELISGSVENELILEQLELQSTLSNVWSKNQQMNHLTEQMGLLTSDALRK

Substance | reduction of Y2H interaction relative to WT [1] | fold increase of Y2H interaction relative to WT [2] [fold] | response [3] [Miller Units]
CRY1^(PHR WT) in pGADT7 (AD) (from UniProt Q43125 1-508) (domain or fragment) | 0.33 | 40 | –
m1; m17 CRY1:R211E; CRY1:R435E; HsFA3:E188R | – | – | 300
m1; m17 CRY1:R211E; HsFA3:E188R | – | – | 90
m1; m17 CRY1:R435E; HsFA3:E188R | – | – | 170
